The target of one data set is T1, ecHrpA1-783,E675A (Escherichia coli DH5-alpha, UniProt P43329 1-783, E675A).
T1 sequence: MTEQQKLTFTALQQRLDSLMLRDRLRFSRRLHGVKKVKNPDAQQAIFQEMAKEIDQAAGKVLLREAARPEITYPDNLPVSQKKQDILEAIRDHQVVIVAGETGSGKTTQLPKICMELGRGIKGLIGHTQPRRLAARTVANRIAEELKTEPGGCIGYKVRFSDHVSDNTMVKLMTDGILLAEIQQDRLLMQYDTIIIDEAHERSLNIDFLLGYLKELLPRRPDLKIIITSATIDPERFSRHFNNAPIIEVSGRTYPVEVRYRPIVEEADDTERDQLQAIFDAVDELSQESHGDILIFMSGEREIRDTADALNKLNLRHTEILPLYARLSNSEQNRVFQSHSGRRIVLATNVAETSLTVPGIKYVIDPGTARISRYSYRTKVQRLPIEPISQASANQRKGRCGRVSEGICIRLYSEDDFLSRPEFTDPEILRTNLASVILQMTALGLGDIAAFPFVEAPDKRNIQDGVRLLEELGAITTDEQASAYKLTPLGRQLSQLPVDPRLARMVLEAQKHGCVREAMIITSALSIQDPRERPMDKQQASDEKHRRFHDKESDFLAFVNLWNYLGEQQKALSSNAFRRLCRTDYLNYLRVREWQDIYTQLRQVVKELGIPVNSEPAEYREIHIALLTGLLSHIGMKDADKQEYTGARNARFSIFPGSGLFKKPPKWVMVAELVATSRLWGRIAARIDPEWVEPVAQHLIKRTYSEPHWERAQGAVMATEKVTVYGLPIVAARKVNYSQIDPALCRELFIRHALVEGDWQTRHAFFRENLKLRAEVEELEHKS
As to the kind of experiment: fluorescence anisotropy. For orientation: Polarisation of emitted light reports the rotation of a fluorescent probe.

A further data set deals with T2, ecHrpA FL (Escherichia coli DH5-alpha, UniProt P43329 1-1300).
T2 sequence: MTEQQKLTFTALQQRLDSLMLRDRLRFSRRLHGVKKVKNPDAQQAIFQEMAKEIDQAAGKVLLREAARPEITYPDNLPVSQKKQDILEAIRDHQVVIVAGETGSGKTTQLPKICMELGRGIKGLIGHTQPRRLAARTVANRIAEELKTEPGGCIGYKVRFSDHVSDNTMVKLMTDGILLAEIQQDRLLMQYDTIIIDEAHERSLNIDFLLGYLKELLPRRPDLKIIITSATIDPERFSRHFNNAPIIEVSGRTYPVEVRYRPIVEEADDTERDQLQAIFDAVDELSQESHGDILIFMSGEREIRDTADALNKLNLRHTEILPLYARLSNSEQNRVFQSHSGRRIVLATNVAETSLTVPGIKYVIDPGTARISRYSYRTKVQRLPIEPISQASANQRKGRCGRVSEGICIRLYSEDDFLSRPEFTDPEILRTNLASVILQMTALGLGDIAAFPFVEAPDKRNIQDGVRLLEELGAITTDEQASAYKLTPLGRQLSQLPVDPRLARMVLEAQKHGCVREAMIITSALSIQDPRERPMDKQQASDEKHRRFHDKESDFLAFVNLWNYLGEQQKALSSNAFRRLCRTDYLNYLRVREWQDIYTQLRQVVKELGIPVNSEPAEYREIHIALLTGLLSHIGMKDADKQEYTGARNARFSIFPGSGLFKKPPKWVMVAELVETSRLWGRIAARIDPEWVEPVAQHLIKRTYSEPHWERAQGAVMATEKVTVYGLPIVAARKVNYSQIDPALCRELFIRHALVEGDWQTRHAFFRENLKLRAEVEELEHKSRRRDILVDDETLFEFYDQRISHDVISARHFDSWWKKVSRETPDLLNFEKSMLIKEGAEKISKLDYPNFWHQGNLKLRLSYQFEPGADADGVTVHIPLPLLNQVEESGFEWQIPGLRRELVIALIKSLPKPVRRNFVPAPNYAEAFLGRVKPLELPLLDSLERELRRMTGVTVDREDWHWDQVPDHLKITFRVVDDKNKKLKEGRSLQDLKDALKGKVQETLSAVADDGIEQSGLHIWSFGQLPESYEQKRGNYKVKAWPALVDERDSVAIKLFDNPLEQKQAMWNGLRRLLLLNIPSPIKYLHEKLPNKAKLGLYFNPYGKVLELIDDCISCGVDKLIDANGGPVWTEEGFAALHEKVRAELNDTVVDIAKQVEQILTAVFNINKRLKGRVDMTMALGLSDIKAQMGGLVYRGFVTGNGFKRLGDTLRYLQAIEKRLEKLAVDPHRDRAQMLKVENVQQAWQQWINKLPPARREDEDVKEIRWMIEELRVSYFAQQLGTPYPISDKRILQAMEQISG
As to the kind of experiment: fluorescence anisotropy.

As to GCUGCCAGACCAAAU (ssRNA) [FAM-RNASS15], the binding signal with ecHrpA1-783,E675A was ~2.2 fold lower RNA binding than ecHrpA1-783. On to TATAAACCAGACCGTC (ssDNA) [FAM-DNASS16], for which the binding result with ecHrpA FL is given as “no binding”.

B1: FAM-RNABlunt (dsRNA)
RNA 1: GCUGCCAGACCAAAU
RNA 2: AUUUGGUCUGGCAGC
For B1, the binding result with ecHrpA FL is “no binding”.

Source of the values: publication PMC8325345.
